Experiment: soluble on expression in E. coli; label from the status in PepcDB or PDB records

Sequence | soluble on expression in E. coli
MDTSKIVGEKIKALREDKSISIEELAQRSGLAIEQIERIENNIDIPSLAPLIKIARVLGVRLGTFLDDQDEIGPVVCRKKEAKDAISFSNNAIHSRKHMEYHSLSKSKADRHMEPFIIDVMPTEDSDFVLSSHEGEEFIMVMEGVMEISYGKNTYLLEEGDSIYYDSIVPHHVHAYEGQAAKILAVVYTPI | not soluble
MFLQHNNQLICNLEKMGLTENEAKAYVGLVSLGEATAREVHELTNVPRAKIYEVLKVLAKRGYLEVRQGSPTYFRAVDPKQVIGKIKDEFINCAIETLDQLNELSYELPRTSPVWCIQSEWGIKNRIREILNGVKEELIVFSSSPRFFQEFEAELKKLEKTCQLTFIISEPEKFESFPFEFRETTKEFREFLNNIVIDGIRYDEEFFMIADGKESIGVHSAGDKREAVVIKLPVVCYLQKMIYDRVLEPSFVKKNRKSA | not soluble
MGSDKIHHHHHHMAGKQLLLMDGIHKRFGPLIVSAGVTLDVEENEIHALLGENGAGKTVLMSILCGVLSPNEGQIVFKGRPLKLGSPREAIKHRIGMVHQHFMLVPNLTVAENYVLGQGSPFSMIRDMRAVHARILELSDRYGLDVAPDALVSSLSVGERQRVEILKVLYHGIELLILDEPTAVLTPQETDRLLHLLRQLVADGKTVIFISHKLDEVMRVSDRVSVMRDAKVVRTVKTSETTARELARMMVGRDVLMYLPRAPLEPGRVVLSVEHLSCDGEAGLPALRDVSFEVRANEIVGIAGVSGNGQSELALALTGLLPVASGSVTLDGTQLAGLSSYEINQLPMAHIPEDRHRMGIVLPLPLTENVILQRFDKPPFSSRGLLDLNEITRQTRDLMRRFKVKASGPGDRIRNLSGGNQQKLVVGRELDRRFDFLLINQLTRGIDIGATELVMHKILEQRSAGKAILLISTELEELFTLSDRILVMYEGRLVGEIPPDRSRLEEIGLLMAGKSPLSAA | not soluble
EPVVVSAADGEIRTGNDHLCDLLDSDPSDVFGSQIGTFFPGLDDVDLRAHCSQSPGTPLTSSCSAGGTERWVEIAFEPQQWDG | not soluble
MSRNRVMSIDFQQLPHAGIRSLIPYVPGKSIEELAKEKGITDIIKLASNENPLGCSPLALSVIQTMSSHYIATYPSPWNHPLMSKLASYLKVKPEQLFLSNGSDYLFNILLNCFALHTDRHILTHDYAFSTYAIQANSLQIPINSVPIGHNWEVNITDIVNACNQQTGIIFIANPNNPTGVLIQQEEIKYLLEQIPKSTLLVLDEAYYEFAASQLTVNSLDWLEEHPNLVVTRTFSKIYGMAGLRLGYAIANPSIINILKRVQLPFIVNQVALAAAYAAIDDDDFIQSSLKMNNEGMLQLQAGFNELNIKYLPSSCNFLTFDCEEDSMALYNYLLDNGIIVRPLHAYKMNNFIRVTIGTKEQNSRFLTALKNFYL | not soluble
MKYNATKAISIAPPTIPTVNPTINEVFSFELLELELEEEEDKLLSCESDCFAQYVDGHLSHVNEVITQYSPEAQTGHDAVESQTTHPSLPLVAEVEEVAVLDKDELAEALEELDIFCLIFRKRT | soluble
MAHHHHHHMRGWTAIRSPQLPTLHHRTVVEHTRPQKKKAKKKHGGRVRLCVWRCRCLPALAAKKTKQEGKKCVLRPTSPRRTPTRHGSLSAPFVAAPPHACSRRGAQGRRHERVGGCASGAVGRETHGTPHRKSAEETIKRGKSRKKKKTSIVIAPKSKKEGMWGVRELKRTN | soluble
MAHHHHHHMWSGLKLERLLYTFPETTTPTGWSQSDPLLSSPLGEADANEGDSSAVFGEDVNVEHRHFNNGERRRKLALRPFTVPASAMAEEGGEEGSHVHLGFSFPGEGKFDEEPEAVLWCPQGNCQWLNEESDCSQRSAMSCPARPTKTTIQLGDPGAPIKKNRERKYICNDADENSNSRVGPALYHQLEFFQESNSVSFPCESSALSHITPLDETGESVDLANHMSHLTVAVSPIQKRLLFTGVLDDAVDAPSGRDVGDDKGVGSGLQSLRREKRFLEEMDTNRDAANSNSMACTMPREPHRKFRRIDAGENDRKSLDNHFHSRR | not soluble
YIWIEHRTIHQHVDESQSSLHHTEKQIQTFITQHNNSFQELDLTNHHDVTATKRELLKLIHQQPATLYYELSGPNQFITNNYEHLNTKNMYLFSTHQLKFNNSTYMLKIYMANTPRLSEIKKDSRQFALIVDQYDNILYANDDRFTIGEKYRPQQFGFMNESVKLNHADHRLIIYKDIHENIED | not soluble
MSMDNHIVIMAGGIGSRFWPMSTPECPKQFIDVMGCGRTLIQLTADRFDGVCPRENVWVVTSEKYIDIVREQLPEIPESNILAEPCARNTAPCIAYACWKIKKKHPNANVVVTPSDALVINTGEFRRVVEKALRFTDNSSAIVTLGIKPTRPETGYGYIAAGDQIMTDKEIFTVDAFKEKPDRETADRYLAEGNYFWNAGIFVWNVRTITSVMRVYAPGIAQIFDRIFPDFYTEKENETIKKLFPTCEAISIDYAVMEKAQEIYVLPASFGWSDLGTWGALRGLLPQDKSGNATVGADVRLYESKNCIVHTSEEKRVVIQGLDGYIIAEKDNTLLICKLDEEQRIKEFSK | not soluble
MGSDKIHHHHHHAAVNRVGMGSSWRAGVKVGVGVSYQFEPGWIGLKSGLYYANRGYSLGDYPRTTESATYVLKEMMTGGITQHFLQLPVMADFSWKVSKEVRMHLAVGMYAGVSVKNDTNWGSSFTMGYSKEPQALGKYVKSTGLGYSYGYGHSGYDEAENADHPFRDVNSFDWGLTTSFGIEVNNWVMNLGYDLSLGDEGGNYKIDGDNFSLYEVRSVGANYNTMSLTVGYKFKL | not soluble
MGSDKIHHHHHHMIIKNRFTDEIEDAYLDYGSPPPEWQTVQNAAESLRSMPTDQLQSSAKSVFDYIRQNMDAILPRISRTTGKPMRYLRLEVDRSLSETGKIVVMDEPMFHDIPQYSVVYPNYQDPVSSLIVPSIFFLLNRVPVIVVPDRYAFLVPSLIYKAFASSGLPSGSFSISNGGIPEGFPSTRYAVSYSTDAMPEAAPGSGTLHADRGGPSMAVVWKDADVDFAAQNLVDSVIERHSIFLRSIVVHDEIFEYFVNRLKDLLPSIVAGDPEDLSTQLGPCASDIDLIRSLNMIAEARRARSIIYSKGPQGNIITPTIINGEITDMDDMVYTPVYILHHASSMEEVFELVSKVGPEALALYSSDSMLFRMVLSRTSAKYIGLNSYPEISYKPPISIPRRGLYL | not soluble
MTKAELRRRARAAWRRLDLKALSRAVGAALLPWLRERGFRHILLYHPLPHELNLLPLMEAYPARYYLPKVAGKGLTVHPFGPLAPGPFGLLEPTTPPEDPRVLDLVVVPGLAFDREGYRLGHGQGFYDRFLKEVRAATVGVVPQALLFPALPRDPWDVPVDHLATEAGVEAVKRPAPGPGGLLD | soluble
MDPLLTVLKERMRACQRRVSDRPRRQVVAIEWIDPPMASGNWIPELIALAGGENMLGTAGKHSPYIEWSTLLAIDPEVILVMPCGFDLERTRQELDQALQTYPQWQQLRALQTGQLYILDGNAYFNRPGPRLVDSLEILVEILHPCPEPKFHGVGWRPYVGPSMAKMSDEGLEHHHHHH | not soluble
MGSDKIHHHHHHMFNTAVKILYRSLIELTNHRLSSYLIKGFCESKISKPVIPLFSKHFRLNWDDVDGTAADYGSLSELFIRQINLERRPVSKEAHAVVSPVDGVVQTVGIINPNQTFTVKGKDYSFAELTGCKSADHQYNGGYFVVLYLSPRHYHRFHSPISCRYQKLAELGNRSYPVNQLGLKYGKDVLSKNYRFVYELNSGSRNVLMIPVGAMNINSIVQTNTRTELEIGEELGYFSFGSTVILVFEKDAFQPSAHLAEGQEVQVGELIGYEE | not soluble
MKVTKSEIVISAVKPEQYPEGGLPEIALAGRSNVGKSSFINSLINRKNLARTSSKPGKTQTLNFYIINDELHFVDVPGYGFAKVSKSEREAWGRMIETYITTREELKAVVQIVDLRHAPSNDDVQMYEFLKYYGIPVIVIATKADKIPKGKWDKHAKVVRQTLNIDPEDELILFSSETKKGKDEAWGAIKKMINR | soluble
GLDNELSLVDGQDRTLTVQQWDTFLNGVFPLDRNRLTREWFHSGRAKYIVAGPGADEFEGTLELGYQIGGPGIQEVATFSVDVSGAEGGVAVSNAHGTVTGAAGGVLLRPFARLIASTGDSVTTYGEPWNMN | soluble
MPVKVLNFPSVVLQHFLVGLTSTELFELTQCSLKSKDRVRPYEKSNKTFRMAVDFQRNWVDIRGVYRFYVKELVDGKLPKTYGKMGVREFGDKKVQVELDENEKTINIFWPTTEKEDRTFAVMKVAEHFIYTLGLGEFESVTLGQENHAGRIIDWANEKNLNIANFTIGNVDKEHDDVDKVAEKLYSASFFKKVSANFKCLINPTEAFKPNEFLPGIPKNTNMIFFHGAHWMTIDTLKDFTACSVILYDCKFTNKDINEFIKLWKNKEFERIFYISINVPQGSGFKLTEVIAGLDGFGEIENDATTMKREDGKEIEVSVLDEKKQIRIVVD | not soluble
MGSDKIHHHHHHRECVQTSLSWRNDTTGIWETAGWWNSANVLTATIRYGAVTKDPAIPSVIEDVFEKARHYQVGVDSTGTPRYCDNFINDYYDDEGWWALAWIEASKLTGEKKYLDMAEIIFDDMTTGWSDACGGGIFWKKNPLHYKNSIANNLFSLTAIRLYKATQNPAYLDWFKKNVDWYMRTGMINTNIYQIEDGTKDDCTPNRNAHYTYNQGVAIAVLAEMYLQTNDKSYLELAEKIADATITTQLITDEGILREMKPEIDDSNDGVQFKGIFIRHLAFLYEVTKNPAYKDFILKNAESIITKDYDPTSKSFGCYWYGPFHKENSAANACALECVIEAYDLTK | not soluble
MYCDHFGFSEHPFALTPNPAFLFLSSRHQEAFAHLLYGIDTRAGFIELSGEVGTGKTTVIRTFLNQLDPETHRTALVFNPTVSPLGLLQGIIREFGLPGTSTEKSELLETLNRFLLDENRAGHTVVLVIDEAQNLSPEVLEQIRLISNLETERDKLIQIVLVGQPELRHLLARQELRQLDQRITVRYHLEPMGLDDTKNYIRHRIRIAAGGREPVIFSAGAVKKIFGFSGGLPRLINAACDRALLLAYTTEAREVSPAMAAAAIADVATEARPPSPSRRFAVAAALILVAALGAGTFAVTRKGGESLPSASPPPTEPAASGEQPLKRTAALAGLAAVPEKDNLSAAVNTILRSWQAPPVASSPSPADLRSLARERGLTVTELSGTLNDLARLDTPALLHITLPQGGKRLVALTSLDKGHIGIDPPIAGHSTLTGGELSTLWSGRASVIWKNFHGIPSRLKPGGRSKAVGQLQELLKGAGYYAGRISGTYDTVTQEAIRSFQTAEGLDADGRTGEKTLLLLYRRAGGFFPPGLTQGKTAARTEAGDRSRGKVAQTRSNGEQSRLEHHHHHH | not soluble
MSAPAAAPKHPGKVFLDPSEVADHLAEYRIVDCRYSLKIKDHGSIQYAKEHVKSAIRADVDTNLSKLVPTSTARHPLPPCAEFIDWCMANGMAGELPVLCYDDECGAMGGCRLWWMLNSLGADAYVINGGFQACKAAGLEMESGEPSSLPRPATHWPFKTAFQHHYLVDEIPPQAIITDARSADRFASTVRPYAADKMPGHIEGARNLPYTSHLVTRGDGKVLRSEEEIRHNIMTVVQGAGDAADLSSFVFSCGSGVTACINIALVHHLGLGHPYLYCGSWSEYSGLFRPPIMRSIIDDYGMCMQMQTPSLGDNPKANLDTMTLKVDGAPCERPDAEVQSAATHLHAGEAATVYFKSGRVVTIEVPVVPNLEA | soluble
MKLFHRITISLSEDDMKLIEELRRDSGDSLSKIFREAIQLYYNLLKASKAAGVDFRKYFANATRLAFHINGVEQKQFAVIDREIYRVMLKKLQEKVPPESIESDEEFRSAVAGVVKLFEITRDRWSEYTDEQKLEEILTTMEFAGAGTFARVGDKEYIFNTYAESTAITKLIISSVLASAGLKVEIDHTPGKIFIRL | not soluble

From the DeepSol protein solubility set
